From patent US10487307B2, “Culture method for pluripotent stem cells” (FUJIFILM CORPORATION, priority 2013, dated 2019)

Columns and labels:
[1] = Aggregation after dialysis of purified polypeptide solution; assay type: physicochemical; parameters: key: G: The formation of an aggregate was not observed.; A: The formation of particles having a particle size of about 100 nm was observed.; B: The formation of an aggregation of particles having a particle size of equal to or greater than 1 mm was visually observed
Method: For RCP-1 to RCP-11, each of the purified polypeptide solutions was dialyzed using Slide-A-Lizer (3.5 K MWCO.). Basically, by using a dialysis buffer (PBS, 1.5 M NaCl, 0.5 M L-arginine, 1 mM EDTA, pH 7.4) as an outer dialysate, urea was removed by stepwise dialysis. The concentration of the end-product of dialysis was calculated from the absorbence at 280 nm by using NanoDrop (Thermo Fisher Scientific Inc.).
Whether or not aggregation was occurred was evaluated based on the scale of A, and B as shown below.
G: The formation of an aggregate was not observed.
A: The formation of particles having a particle size of about 100 nm was observed.
B: The formation of an aggregation of particles having a particle size of equal to or greater than 1 mm was visually observed.

[2] = test system: iPS cells; assay: Growth evaluation, number of cells after 3 days; assay type: cell-based, human; conditions: 5,000 cells/well
Method: By adding RCP-1 to RCP-11 and Human Recombinant Laminin-511 as control at the concentration shown in Table 9, samples 1 to 12 were prepared. The samples were seeded into a 96-well plate, onto which each of the polypeptides was adsorbed in the same manner as in <Cell adhesiveness evaluation 1>, at a ratio of 5,000 cells/well and cultured for 3 days in a CO2 incubator at 37° C. The number of cells after 3 days was calculated in the same manner as in <Cell adhesiveness evaluation 1>. In Table 9, the number of cells after 3 days is expressed as a ratio calculated by regarding the number of cells obtained by using the sample 1 as being 100%.

[3] = test system: human iPS cells ("Tic"); assay: Cell adhesiveness evaluation 1 (ALP activity of adhesive iPS cells); assay type: cell-based; conditions: 30,000 cells/well, 24 hours, natural vitronectin (sample 15) = 100%, n=3
Outline: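 Peptides and controls were adsorbed onto wells for 2 h at 37 °C. Single-cell human iPS cells in TeSR2 with 10 μM Y-27362 were seeded at 30,000 cells/well. After 24 h, non-adherent cells were washed off and adherent cells fixed; cell number came from ALP activity via a calibration curve. Adhesion is expressed relative to natural vitronectin (100%), n=3.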

Molecule	Aggregation [1]	Number of cells after 3 days (%) ([2]; added amount 10 μg/cm^2, sample 1 (RCP-1) = 100%)	Cell adhesion rate (%) ([3]; added amount 10 μg/cm^2)	Number of cells after 3 days (%) ([2]; added amount 80 μg/cm^2, sample 1 = 100%)	Cell adhesion rate (%) ([3]; added amount 200 pmol/cm^2)	Number of cells after 3 days (%) ([2]; added amount 5 μg/cm^2, sample 1 (RCP-1) = 100%)	Cell adhesion rate (%) ([3]; added amount 5 μg/cm^2)
RCP-5: recombinant polypeptide for culture, SEQ ID NO: 19; vitronectin positions 1-55, 302-341, 342-373 (protein, Vitronectin-derived Recombinant Protein (RCP-5)) MDQESCKGRCTEGFNVDKKCQCDELCSYYQSCCTDYTAECKPQVTRGDVFTMPEDEFWGRTSAGTRQPQFISRDWHGVPGQVDAAMAGRIYISGMAPRPSLAKKQRFRHRNRKGYRSQRGHSRGRNQN	G	121.2%	94.1 ± 6.5%	–	–	–	–
RCP-1: recombinant polypeptide for culture, SEQ ID NO: 15; human vitronectin positions 1-55 and 269-459 with N-terminal methionine (protein, Vitronectin-derived Recombinant Protein (RCP-1)) MDQESCKGRCTEGFNVDKKCQCDELCSYYQSCCTDYTAECKPQVTRGDVFTMPEDEPSQEECEGSSLSAVFEHFAMMQRDSWEDIFELLFWGRTSAGTRQPQFISRDWHGVPGQVDAAMAGRIYISGMAPRPSLAKKQRFRHRNRKGYRSQRGHSRGRNQNSRRPSRATWLSLFSSEESNLGANNYDDYRMDWLVPATCEPIQSVFFFSGDKYYRVNLRTRRVDTVDPPYPRSIAQYWLGCPAPGHL	A	–	–	100.0%	109.3 ± 5.3%	–	–
RCP-11: recombinant polypeptide for culture, SEQ ID NO: 25; vitronectin positions 1-55, 269-277, 295-341, 342-373, C274S (protein, Vitronectin-derived Recombinant Protein (RCP-11), vitronectin positions 1-55, 269-277, 295-341, 342-373, C274S) MDQESCKGRCTEGFNVDKKCQCDELCSYYQSCCTDYTAECKPQVTRGDVFTMPEDESQEESEGSEDIFELLFWGRTSAGTRQPQFISRDWHGVPGQVDAAMAGRIYISGMAPRPSLAKKQRFRHRNRKGYRSQRGHSRGRNQN	A	–	–	–	–	153.5%	95.9 ± 4.6%
